Laboratory results taken from patent US20120164659A1 (NEXIGEN, published 2012).

B1: membrane-associated Ring-finger 7 (MARCH7), prey fusion with myristoylation signal from the human hepatocyte cDNA library (other)
chain: MESKPSRIPRRISVQPSSSLSARMMSGSRGSSLNDTYHSRDSSFRLDSEYQSTSASASASPFQSAWYSESEITQGARSRSQNQQRDHDSKRPKLSCTNCTTSAGRNVGNGLNTLSDSSWRHSQVPRSSSMVLGSFGTDLMRERRDLERRTDSSISNLMDYSHRSGDFTTSSYVQDRVPSYSQGARPKENSMSTLQLNTSSTNHQLPSEHQTILSSRDSRNSLRSNFSSRESESSRSNTQPGFSYSSSRDEAPIISNSERVVSSQRPFQESSDNEGRRTTRRLLSRIASSMSSTFFSRRSSQDSLNTRSLNSENSYVSPRILTASQSRSNVPSASEVPDNRASEASQGFRFLRRRWGLSSLSHNHSSESDSENFNQESEGRNTGPWLSSSLRNRCTPLFSRRRREGRDESSRIPTSDTSSRSHIFRRESNEVVHLEAQNDPLGAAANRPQASAASSSATTGGSTSDSAQGGRNTGISGILPGSLFRFAVPPALGSNLTDNVMITVDIIPSGWNSADGKSDKTKSAPSRDPERLQKIKESLLLEDSEEEEGDLCRICQMAAASSSNLLIEPCKCTGSLQYVHQDCMKKWLQAKINSGSSLEAVTTCELCKEKLELNLEDFDIHELHRAHANEQAEYEFISSGLYLVVLLHLCEQSFSDMMGNTNEPSTRVRFINLARTLQAHMEDLETSEDDSEEDGDHNRTFDIA
modifications: myristoylation signal at the N-terminus (membrane localisation)
notes: also called axotrophin; membrane-associated RING-CH protein VII; not shown: myristoylation signal of the pmyr library vector
B2: Interferone-induced guanylate binding protein-2 (GBP2), prey fusion with myristoylation signal from the human hepatocyte cDNA library (other)
chain: MAPEINLPGPMSLIDNTKGQLVVNPEALKILSAITQPVVVVAIVGLYRTGKSYLMNKLAGKKNGFSLGSTVKSHTKGIWMWCVPHPKKPEHTLVLLDTEGLGDIEKGDNENDSWIFALAILLSSTFVYNSMGTINQQAMDQLHYVTELTDRIKANSSPGNNSVDDSADFVSFFPAFVWTLRDFTLELEVDGEPITADDYLELSLKLRKGTDKKSKSFNDPRLCIRKFFPKRKCFVFDWPAPKKYLAHLEQLKEEELNPDFIEQVAEFCSYILSHSNVKTLSGGIPVNGPRLESLVLTYVNAISSGDLPCMENAVLALAQIENSAAVEKAIAHYEQQMGQKVQLPTETLQELLDLHRDSEREAIEVFMKNSFKDVDQMFQRKLGAQLEARRDDFCKQNSKASSDCCMALLQDIFGPLEEDVKQGTFSKPGGYRLFTQKLQELKNKYYQVPRKGIQAKEVLKKYLESKEDVADALLQTDQSLSEKEKAIEVERIKAESAEAAKKMLEEIQKKNEEMMEQKEKSYQEHVKQLTEKMERDRAQLMAEQEKTLALKLQEQERLLKEGFENESKRLQKDIWDIQMRSKSLEPICNIL
modifications: myristoylation signal at the N-terminus (membrane localisation)
notes: also called NM-004120; not shown: myristoylation signal of the pmyr library vector

Assays:
[1] = biological target: T1, Sos-2xSpc-Vif fusion protein (negative control target protein, expressed from pADH-Sos-2xSpc-vif); assay: Sos recruitment system in cdc25-2 yeast, growth at 37 C on galactose (FIG. 2 row D: MARCH7+SOS-Vif)
T1 construct: Heterologous control bait in cdc25-2 yeast; also called Sos-Vif; SOS-Vif

[2] = biological target: T1, Sos-2xSpc-Vif fusion protein (negative …); assay: Sos recruitment system in cdc25-2 yeast, growth at 37 C on galactose (FIG. 2 row B: GBP2+Sos-Vif)

| Binder | binding result [1] | binding result [2] |
| --- | --- | --- |
| B1 | no binding |  |
| B2 |  | no binding |
